# B1: Mothers against decapentaplegic homolog 3 (Rattus norvegicus (Rat)), P84025 (parent)
# chain: MSSILPFTPPIVKRLLGWKKGEQNGQEEKWCEKAVKSLVKKLKKTGQLDELEKAITTQNVNTKCITIPRSLDGRLQVSHRKGLPHVIYCRLWRWPDLHSHHELRAMELCEFAFNMKKDEVCVNPYHYQRVETPVLPPVLVPRHTEIPAEFPPLDDYSHSIPENTNFPAGIEPQSNIPETPPPGYLSEDGETSDHQMNHSMDAGSPNLSPNPMSPAHNNLDLQPVTYCEPAFWCSISYYELNQRVGETFHASQPSMTVDGFTDPSNSERFCLGLLSNVNRNAAVELTRRHIGRGVRLYYIGGEVFAECLSDSAIFVQSPNCNQRYGWHPATVCKIPPGCNLKIFNNQEFAALLAQSVNQGFEAVYQLTRMCTIRMSFVKGWGAEYRRQTVTSTPCWIELHLNGPLQWLDKVLTQMGSPSIRCSSVS
# Variants of: B1
# Details: with ncap_sars N
row,Variant,effect of a mutation on the interaction
1,S422A;S423A;S425A,with no effect
2,S423D;S425D,with no effect

# — IntAct's records for PubMed 18055455
